# B1: Sin R54E/I113V catalytic domain (residues 1-128) (domain or fragment, UniProt P20384 1-128, looked up)
# chain: MIIGYARVSSLDQNLERQLENLKTFGAEKIFTEKQSGKSIENRPILQKALNFVEMGDRFIVESIDRLGRNYNEVIHTVNYLKDKEVQLMITSLPMMNEVIGNPLLDKFMKDLVIQILAMVSEQERNES
# modifications: selenomethionine in place of methionine
# B2: Sin R54E/I100T/Q115R catalytic domain (residues 1-128) (domain or fragment, UniProt P20384 1-128, looked up)
# chain: MIIGYARVSSLDQNLERQLENLKTFGAEKIFTEKQSGKSIENRPILQKALNFVEMGDRFIVESIDRLGRNYNEVIHTVNYLKDKEVQLMITSLPMMNEVTGNPLLDKFMKDLIIRILAMVSEQERNES
# modifications: selenomethionine in place of methionine
# B3: Sin R54E/I100T catalytic domain (residues 1-128) (domain or fragment, UniProt P20384 1-128, looked up)
# chain: MIIGYARVSSLDQNLERQLENLKTFGAEKIFTEKQSGKSIENRPILQKALNFVEMGDRFIVESIDRLGRNYNEVIHTVNYLKDKEVQLMITSLPMMNEVTGNPLLDKFMKDLIIQILAMVSEQERNES
# modifications: selenomethionine in place of methionine
# B4: Sin R54E/T77I/I100T/Q115R catalytic domain (residues 1-128) (domain or fragment, UniProt P20384 1-128, looked up)
# chain: MIIGYARVSSLDQNLERQLENLKTFGAEKIFTEKQSGKSIENRPILQKALNFVEMGDRFIVESIDRLGRNYNEVIHIVNYLKDKEVQLMITSLPMMNEVTGNPLLDKFMKDLIIRILAMVSEQERNES
# modifications: selenomethionine in place of methionine
# Target: the molecule itself
# Test: crystal structure
row,Protein,stoichiometry N
1,B1,4
2,B2,4
3,B3,4
4,B4,4

# Source: publication PMC6007550 (Nucleic Acids Research, 2018)
